According to PMC9785946, “Bioorthogonal Chemistry Approach for the Theranostics of GRPR-Expressing Cancers” (Pharmaceutics, 2022):
Several values for one entry are separate records, joined by “and”; a condition that tells them apart may be missing. Equal values may be shown once. Read-outs that look alike come from different tables or passages of the source.

Assays:
[1] = Experimental: The octanol–water partition coefficients (Po/w) of the radioconjugates (20 µL, typically 1 to 5 MBq) were determined by the “shake-flask” method, as previously described.
PC3 cells = assay: Cellular uptake, internalization and blocking assays in PC3 cells; assay type: cell-based, human; details: 37 °C
Experimental: The time-dependent accumulation of ^111In-conjugates in PC3 cells was evaluated according to a previously described procedure. Briefly, PC3 cells were incubated at 37 °C for 5 min to 4 h with about 7.4 kBq of the tested radioconjugates. To assess the surface binding, the cells were treated twice with glycine buffer (50 mM glycine-HCl/100 mM NaCl, pH 2.8). Then, the cells were lysed with NaOH 1 M (internalized radioconjugate). The activity in both cell surface-bound and internalized fractions was measured in a γ-counter and reported as a percentage of the total applied radioactivity. The total cellular uptake was calculated by the addition of the activities recovered from the surface binding and internalized fractions. Assays for each time point were performed in quadruplicate, and data were presented as average ± SD of typically three independent experiments.
To assess the specific GRPR-mediated cellular uptake and internalization of radioconjugates (receptor blocking studies), a similar study was performed in which cells were incubated with the [^111In]In-DOTA-Tz-TCO-PEG4-AR for 1, 2 and 4 h, with or without the GRPR agonist Tyr4-Bombesin (0.25 µg/0.5 mL/well).

[2] = Biodistribution of 111In-radioconjugates/radiocomplex in PC3 xenografts-bearing mice; assay type: in vivo, Balb/c-male nude mice; details: male, Balb/c nude, mouse, iv, total radioactivity; for tissue uptake at […]: 15 min p.i.
Description: (§1) Blood samples were taken by cardiac puncture at sacrifice.

[3] = test system: PC3 xenografts-bearing mice; assay: as above; assay type: in vivo, Balb/c-male nude mice
Description: as §1

[4] = tumor (PC3 xenograft), 1 h p.i., read-out: Tumor uptake
[5] = 15 min p.i., listed as [111In]In-DOTA-Tz-TCO-PEG4-AR
[6] = 1 h p.i., blocking (excess of agonist)

CC(C)C[C@H](NC(=O)C[C@H](O)[C@H](CC(C)C)NC(=O)[C@H](Cc1c[nH]cn1)NC(=O)CNC(=O)[C@@H](NC(=O)[C@H](C)NC(=O)[C@H](Cc1c[nH]c2ccccc12)NC(=O)[C@H](CCC(N)=O)NC(=O)[C@@H](Cc1ccccc1)NC(=O)CCOCCOCCOCCOCCNC(=O)OC1CCCc2c(cnnc2-c2ccc(CNC(=O)CN3CCN(CC(=O)O)CCN(CC(=O)O)CCN(CC(=O)O)CC3)cc2)CC1)C(C)C)C(N)=O (some centres unmarked) [[^111In]In-DOTA-Tz-TCO-PEG4-AR, metal not drawn]
logP [1]: -1.2 ± 0.04
Distribution of cell-associated activity (surface-bound vs internalized) (PC3 cells): mainly bound to the cell membrane
Cellular uptake (PC3 cells; start of the assay): 17 % of the total activity applied per million cells
tissue uptake at 1 h ([2]; heart, 1 h p.i., read-out: Heart uptake): 0.815 %ID/g
dose excreted at 1 h ([2]; in vivo, 1 h p.i., read-out: Excretion): 74.8%
dose excreted at 24 h ([2]; in vivo, 24 h post-injection, mainly through the renal system, read-out: Injected activity excreted): 97%
tissue uptake at 1 h ([2]; intestine, 1 h p.i., read-out: Intestine uptake): 1.85 %ID/g
tissue uptake at […] ([2]; kidneys, read-out: Kidneys uptake): 15.4 ± 6.2 %ID/g
tissue uptake at 1 h ([2]; kidneys, 1 h p.i., read-out: Kidneys uptake): 5.33 %ID/g
tissue uptake at […] ([2]; liver, read-out: Liver uptake): 6 %ID/g
tissue uptake at 1 h ([2]; lungs, 1 h p.i., read-out: Lungs uptake): 1.61 %ID/g
tissue uptake at 1 h ([2]; muscle, 1 h p.i., read-out: Muscle uptake): 0.875 %ID/g
tissue uptake at 2 h ([2]; pancreas, 2 h p.i.): 11 %ID/g
tissue uptake at 1 h ([2]; pancreas, with excess of agonist (receptor blocking), 1 h p.i., blocking (excess of agonist), read-out: Pancreas uptake): 1.6 ± 0.6 %ID/g
tissue uptake at 1 h ([2]; stomach, 1 h p.i., read-out: Stomach uptake): 2.62 %ID/g
tissue uptake at 1 h [2, 4]: 9.57 %ID/g
tissue uptake at 1 h ([2]; tumor (PC3 xenograft), with excess of agonist (receptor blocking), 1 h p.i., blocking (excess of agonist), read-out: Tumor uptake): 4.4 ± 2 %ID/g
Blood uptake ([3]; 15 min p.i.): 6. 7 % I.D./g
Bone uptake ([3]; 15 min p.i.): 7. 2 % I.D./g
Excretion ([3]; 15 min p.i.): 17. % I.D.
Heart uptake ([3]; 15 min p.i.): 5. 4 % I.D./g
Intestine uptake ([3]; 15 min p.i.): 3. 6 % I.D./g
Lungs uptake ([3]; 15 min p.i.): 9. 6 % I.D./g
Muscle uptake ([3]; 15 min p.i.): 3. 8 % I.D./g
Pancreas uptake ([3]; 15 min p.i.): 25.2 ± 3 % I.D./g and 25.2 ± 0.2 % I.D./g
Spleen uptake ([3]; 15 min p.i.): 3. 6 % I.D./g
Stomach uptake ([3]; 15 min p.i.): 10. 6 % I.D./g
Tumor uptake ([3]; 15 min p.i.): 8.4 ± 0.5 % I.D./g
Kidneys uptake [3, 5]: 15. 4 % I.D./g
Pancreas uptake [3, 5]: 25. 2 % I.D./g
Tumor uptake [3, 5]: 8. 4 % I.D./g
Blood uptake ([3]; 1 h p.i.): 2. 62 % I.D./g
Bone uptake ([3]; 1 h p.i.): 0. 85 % I.D./g
Liver uptake ([3]; 1 h p.i.): 1. 15 % I.D./g
Pancreas uptake ([3]; 1 h p.i.): 13.9 ± 1.6 % I.D./g
Spleen uptake ([3]; 1 h p.i.): 1. 32 % I.D./g
Tumor uptake ([3]; 1 h p.i.): 9.6 ± 1.7 % I.D./g
Blood uptake [3, 6]: 3. 08 % I.D./g
Bone uptake [3, 6]: 1. 395 % I.D./g
Excretion [3, 6]: 51. % I.D.
Heart uptake [3, 6]: 1. 11 % I.D./g
Intestine uptake [3, 6]: 0. 995 % I.D./g
Kidneys uptake [3, 6]: 8. 435 % I.D./g
Liver uptake [3, 6]: 1. 63 % I.D./g
Lungs uptake [3, 6]: 2. 135 % I.D./g
Muscle uptake [3, 6]: 1. 755 % I.D./g
Pancreas uptake [3, 6]: 1. 685 % I.D./g
Spleen uptake [3, 6]: 0. 83 % I.D./g
Stomach uptake [3, 6]: 1. 16 % I.D./g
Tumor uptake [3, 6]: 4. 445 % I.D./g
Pancreas uptake ([3]; 1 h p.i., listed as [111In]In-DOTA-Tz-TCO-PEG4-AR): 13. 875 % I.D./g
Blood uptake ([3]; 2 h p.i.): 1. 7 % I.D./g
Bone uptake ([3]; 2 h p.i.): 0. 7 % I.D./g
Excretion ([3]; 2 h p.i.): 84. % I.D.
Heart uptake ([3]; 2 h p.i.): 0. 5 % I.D./g
Intestine uptake ([3]; 2 h p.i.): 1. 1 % I.D./g
Kidneys uptake ([3]; 2 h p.i.): 5. 4 % I.D./g
Liver uptake ([3]; 2 h p.i.): 1. 7 % I.D./g
Lungs uptake ([3]; 2 h p.i.): 1. 1 % I.D./g
Muscle uptake ([3]; 2 h p.i.): 0. 6 % I.D./g
Pancreas uptake ([3]; 2 h p.i.): 11 ± 2.5 % I.D./g
Spleen uptake ([3]; 2 h p.i.): 0. 6 % I.D./g
Stomach uptake ([3]; 2 h p.i.): 2. 1 % I.D./g
Tumor uptake ([3]; 2 h p.i.): 13.1 ± 1.7 % I.D./g
Tumor uptake ([3]; 2 h p.i., listed as [111In]In-DOTA-Tz-TCO-PEG4-AR): 13. 1 % I.D./g
Blood uptake ([3]; 24 h p.i.): 0. 16 % I.D./g
Bone uptake ([3]; 24 h p.i.): 0. 038 % I.D./g
Excretion ([3]; 24 h p.i.): 96. % I.D.
Heart uptake ([3]; 24 h p.i.): 0. 065 % I.D./g
Intestine uptake ([3]; 24 h p.i.): 0. 12 % I.D./g
Kidneys uptake ([3]; 24 h p.i.): 1. 17 % I.D./g
Liver uptake ([3]; 24 h p.i.): 0. 21 % I.D./g
Lungs uptake ([3]; 24 h p.i.): 0. 12 % I.D./g
Muscle uptake ([3]; 24 h p.i.): 0. 034 % I.D./g
Pancreas uptake ([3]; 24 h p.i.): 0. 14 % I.D./g
Spleen uptake ([3]; 24 h p.i.): 0. 065 % I.D./g
Stomach uptake ([3]; 24 h p.i.): 0. 09 % I.D./g
Tumor uptake ([3]; 24 h p.i.): 0. 76 % I.D./g

CC(C)C[C@H](NC(=O)C[C@H](O)[C@H](CC(C)C)NC(=O)[C@H](Cc1c[nH]cn1)NC(=O)CNC(=O)[C@@H](NC(=O)[C@H](C)NC(=O)[C@H](Cc1c[nH]c2ccccc12)NC(=O)[C@H](CCC(N)=O)NC(=O)[C@@H](Cc1ccccc1)NC(=O)CN1CCC(NC(=O)OC2CCCc3c(cnnc3-c3ccc(CNC(=O)CN4CCN(CC(=O)O)CCN(CC(=O)O)CCN(CC(=O)O)CC4)cc3)CC2)CC1)C(C)C)C(N)=O (some centres unmarked) [[^111In]In-DOTA-Tz-TCO-Pip-AR, metal not drawn]
logP [1]: -1.28 ± 0.01
Distribution of cell-associated activity (surface-bound vs internalized) (PC3 cells): almost all cell-associated activity corresponded to the membrane-bound fraction
Maximum cellular uptake (PC3 cells; 5 min to 4 h): around 10 % of the total activity applied per million cells
tissue uptake at 1 h ([2]; pancreas, 1 h p.i., read-out: Pancreas uptake): 2.8 ± 0.5 %ID/g
tissue uptake at 1 h [2, 4]: 3.2 ± 0.1 %ID/g
Blood uptake ([3]; 1 h p.i.): 2. 63 % I.D./g
Bone uptake ([3]; 1 h p.i.): 1. 2 % I.D./g
Excretion ([3]; 1 h p.i.): 63. % I.D.
Heart uptake ([3]; 1 h p.i.): 1. 06 % I.D./g
Intestine uptake ([3]; 1 h p.i.): 0. 54 % I.D./g
Kidneys uptake ([3]; 1 h p.i.): 9. 04 % I.D./g
Liver uptake ([3]; 1 h p.i.): 3. 97 % I.D./g
Lungs uptake ([3]; 1 h p.i.): 1. 74 % I.D./g
Muscle uptake ([3]; 1 h p.i.): 0. 64 % I.D./g
Pancreas uptake ([3]; 1 h p.i.): 3. 24 % I.D./g
Spleen uptake ([3]; 1 h p.i.): 0. 98 % I.D./g
Stomach uptake ([3]; 1 h p.i.): 0. 48 % I.D./g
Tumor uptake ([3]; 1 h p.i.): 2. 79 % I.D./g
Blood uptake [3, 6]: 3. 11 % I.D./g
Bone uptake [3, 6]: 0. 97 % I.D./g
Excretion [3, 6]: 60. % I.D.
Heart uptake [3, 6]: 0. 6 % I.D./g
Intestine uptake [3, 6]: 0. 4 % I.D./g
Kidneys uptake [3, 6]: 7. 18 % I.D./g
Liver uptake [3, 6]: 3. 28 % I.D./g
Lungs uptake [3, 6]: 1. 44 % I.D./g
Muscle uptake [3, 6]: 0. 63 % I.D./g
Pancreas uptake [3, 6]: 1. 67 % I.D./g
Spleen uptake [3, 6]: 0. 74 % I.D./g
Stomach uptake [3, 6]: 0. 34 % I.D./g
Tumor uptake [3, 6]: 1. 38 % I.D./g
Blood uptake ([3]; 2 h p.i.): 0. 16 % I.D./g
Bone uptake ([3]; 2 h p.i.): 0. 13 % I.D./g
Excretion ([3]; 2 h p.i.): 91. % I.D.
Heart uptake ([3]; 2 h p.i.): 0. 08 % I.D./g
Intestine uptake ([3]; 2 h p.i.): 0. 09 % I.D./g
Kidneys uptake ([3]; 2 h p.i.): 3. 09 % I.D./g
Liver uptake ([3]; 2 h p.i.): 1. 02 % I.D./g
Lungs uptake ([3]; 2 h p.i.): 0. 18 % I.D./g
Muscle uptake ([3]; 2 h p.i.): 0. 05 % I.D./g
Pancreas uptake ([3]; 2 h p.i.): 0. 28 % I.D./g
Spleen uptake ([3]; 2 h p.i.): 0. 28 % I.D./g
Stomach uptake ([3]; 2 h p.i.): 0. 05 % I.D./g
Tumor uptake ([3]; 2 h p.i.): 1. 13 % I.D./g
